# In patent US9512172B2, “Ethanol dependence of alpha1 antitrypsin C-terminal Lys truncation by basic carboxypeptidases” (Baxalta Incorporated, priority 2006, dated 2016):
# Assays:
# [1] = Percent C-terminal Lys truncated (des-Lys) A1PI in A1PI products; assay type: physicochemical, human; conditions: commercial product
# Method: ARALAST® (Alpha1-Proteinase Inhibitor (Human)), Prolastin PROLASTIN® (Alpha1-Proteinase Inhibitor (Human)), and ZEMAIRA® (Alpha1-Proteinase Inhibitor (Human)) were analyzed by high-resolution IEF and high-performance size-exclusion chromatography (HP-SEC). Preparative separated isoforms from IEF were further purified by chromatography and subjected to mass spectrometry for sequence analyses, peptide mapping, and glycosylation analysis. Deamidation was quantified by enzymatic isoaspartate detection. Multiple sequence alignments and structural bioinformatics analyses were performed.
# A1PI [2] = assay: Incubation of purified non-truncated A1PI with carboxypeptidases, analysis by IEF; assay type: biochemical, human; conditions: for Lys truncation of A1PI by carboxypeptidase: A1PI in temporary contact with 40% ethanol, then diluted to 10% ethanol; for C-terminal lys removal from A1PI by carboxypeptidase: in the presence of only 10% ethanol
# Method: A1PI solutions were incubated with different CPs. Temporary exposure to 40% ethanol was achieved by diluting the A1PI preparation (38 μM) with 96% ethanol. The precipitate formed was kept 30 min at −20° C. and a further 30 min at +4° C., before it was diluted with TRIS-HCl buffer (pH 8.8) to a final concentration of 10% ethanol. Concomitantly, CPs were added with the TRIS buffer and the reaction mixture containing 10 μM A1PI was then incubated at 37° C. for 60 min. Before IEF analysis dithioerythritol (DTE) was added to a final concentration of 5 mM. In addition, the incubation with CPs was done without ethanol or at 10% ethanol. Furthermore, we ran two concentration rows with either CPN (270-1 mU/ml) or CPM (250-10 mU/ml) after temporary exposure of A1PI to 40% ethanol (CPN units were tested against Hip-Arg).
# (§1) For high resolution isoelectric focusing a new hybrid IEF method using IPG-Immobiline gels (GE Healthcare Bio-Sciences, pI 4.2-4.9, Uppsala, Sweden) was developed which is similar to that described by Weidinger^54. Samples were diluted with water to 0.5 mg A1PI/mL and 5 mM DTE was added. Samples (20 μl) were applied close to the cathode on the pre-focused gel and focused for 150 min (5000 Vh). For paste extracts focusing time was extended to 420 min. Gels were stained with Coomassie Brilliant Blue G-250 (BioRad, Hercules, USA) as described by Neuhoff^55. Blotting and immunostaining were done with a rabbit anti-A1PI antibody (Rabbit Anti-Human Alpha-1-Antitrypsin, #A0012, DakoCytomation, Glostrup, Denmark).
# A1PI [3] = assay: C-terminal Lys truncation of A1PI in dissolved Cohn IV-1 paste (IEF); assay type: biochemical, human; conditions: presence of only 10% ethanol; CPB added, CPN as present in the paste
# Method: Cohn IV-1 paste was dissolved in 2.6 volumes of 10 mM Tris-buffer at pH 8.8 and incubated for 30 min at 22° C. The suspension was made 40% in ethanol (by addition of 2.4 volumes of ethanol), stirred for a further 60 min, diluted with the same Tris-buffer to 10% ethanol and extracted for a further 6 h.
# IV-1 paste was dissolved in 20.6 volumes of 10 mM Tris-buffer at pH 8.8 and incubated during 30 min at 22° C. The suspension was made 10% in ethanol (by addition of 2.4 volumes of ethanol) and stirred for a further 6 h at 22° C. and pH 8.8.
# as §1
Molecule,Percent of A1PI C-terminal truncation as compared to total A1PI protein [1],Lys truncation of A1PI by carboxypeptidase (A1PI [2]),C-terminal lys removal from A1PI by carboxypeptidase (A1PI [2]),Lys truncation of A1PI in dissolved IV-1 paste by carboxypeptidase (A1PI [3]),Carboxypeptidase concentration inducing 50% C-terminal A1PI truncation (A1PI [2]; 40% ethanol-pretreated purified A1PI),C-terminal lysines cleaved from purified uncleaved A1PI (A1PI [2]; 50 mU CPN/ml)
"ZEMAIRA: Alpha1-Proteinase Inhibitor (Human), approved plasma-derived A1PI concentrate",6%,–,–,–,–,–
"CPB: carboxypeptidase B, EC 3.4.17.2, small 35 kDa carboxypeptidase from pancreas (protein, UniProt P15086 111-417, looked up) Carboxypeptidase B: ATGHSYEKYNKWETIEAWTQQVATENPALISRSVIGTTFEGRAIYLLKVGKAGQNKPAIFMDCGFHAREWISPAFCQWFVREAVRTYGREIQVTELLDKLDFYVLPVLNIDGYIYTWTKSRFWRKTRSTHTGSSCIGTDPNRNFDAGWCEIGASRNPCDETYCGPAAESEKETKALADFIRNKLSSIKAYLTIHSYSQMMIYPYSYAYKLGENNAELNALAKATVKELASLHGTKYTYGPGATTIYPAAGGSDDWAYDQGIRYSFTFELRDTGRYGFLLPESQIRATCEETFLAIKYVASYVLEHLY",–,almost complete,completely truncate,almost complete,–,–
"CPM: carboxypeptidase M, EC 3.4.17.12, recombinant, expressed in P. pastoris (protein, UniProt P14384 18-423, looked up) Carboxypeptidase M: LDFNYHRQEGMEAFLKTVAQNYSSVTHLHSIGKSVKGRNLWVLVVGRFPKEHRIGIPEFKYVANMHGDETVGRELLLHLIDYLVTSDGKDPEITNLINSTRIHIMPSMNPDGFEAVKKPDCYYSIGRENYNQYDLNRNFPDAFEYNNVSRQPETVAVMKWLKTETFVLSANLHGGALVASYPFDNGVQATGALYSRSLTPDDDVFQYLAHTYASRNPNMKKGDECKNKMNFPNGVTNGYSWYPLQGGMQDYNYIWAQCFEITLELSCCKYPREEKLPSFWNNNKASLIEYIKQVHLGVKGQVFDQNGNPLPNVIVEVQDRKHICPYRTNKYGEYYLLLLPGSYIINVTVPGHDPHITKVIIPEKSQNFSALKKDILLPFQGQLDSIPVSNPSCPMIPLYRNLPDHS",–,almost complete,–,–,50 mU/ml,–
"CPN: carboxypeptidase N, EC 3.4.17.3, basic carboxypeptidase of plasma (protein, UniProt P15169 21-458; P22792 22-545, looked up) Carboxypeptidase N catalytic …: VTFRHHRYDDLVRTLYKVQNECPGITRVYSIGRSVEGRHLYVLEFSDHPGIHEPLEPEVKYVGNMHGNEALGRELMLQLSEFLCEEFRNRNQRIVQLIQDTRIHILPSMNPDGYEVAAAQGPNKPGYLVGRNNANGVDLNRNFPDLNTYIYYNEKYGGPNHHLPLPDNWKSQVEPETRAVIRWMHSFNFVLSANLHGGAVVANYPYDKSFEHRVRGVRRTASTPTPDDKLFQKLAKVYSYAHGWMFQGWNCGDYFPDGITNGASWYSLSKGMQDFNYLHTNCFEITLELSCDKFPPEEELQREWLGNREALIQFLEQVHQGIKGMVLDENYNNLANAVISVSGINHDVTSGDHGDYFRLLLPGIYTVSATAPGYDPETVTVTVGPAEPTLVNFHLKRSIPQVSPVRRAPSRRHGVRAKVQPQARKKEMEMRQLQRGPA Carboxypeptidase N subunit 2: CPMGCDCFVQEVFCSDEELATVPLDIPPYTKNIIFVETSFTTLETRAFGSNPNLTKVVFLNTQLCQFRPDAFGGLPRLEDLEVTGSSFLNLSTNIFSNLTSLGKLTLNFNMLEALPEGLFQHLAALESLHLQGNQLQALPRRLFQPLTHLKTLNLAQNLLAQLPEELFHPLTSLQTLKLSNNALSGLPQGVFGKLGSLQELFLDSNNISELPPQVFSQLFCLERLWLQRNAITHLPLSIFASLGNLTFLSLQWNMLRVLPAGLFAHTPCLVGLSLTHNQLETVAEGTFAHLSNLRSLMLSYNAITHLPAGIFRDLEELVKLYLGSNNLTALHPALFQNLSKLELLSLSKNQLTTLPEGIFDTNYNLFNLALHGNPWQCDCHLAYLFNWLQQYTDRLLNIQTYCAGPAYLKGQVVPALNEKQLVCPVTRDHLGFQVTWPDESKAGGSWDLAVQERAARSQCTYSNPEGTVVLACDQAQCRWLNVQLSPQQGSLGLQYNASQEWDLRSSCGSLRLTVSIEARAAGP",–,~60%,slightly,did not remove the C-terminal lysine,–,10-20%
